Assay results from patent US20210361653.

Biological target: His-BRD4-N (amino acids 1-500), O60885

B1: GST-SPOP (protein)
chain: MSRVPSPPPPAEMSSGPVAESWCYTQIKVVKFSYMWTINNFSFCREEMGEVIKSSTFSSGANDKLKWCLRVNPKGLDEESKDYLSLYLLLVSCPKSEVRAKFKFSILNAKGEETKAMESQRAYRFVQGKDWGFKKFIRRDFLLDEANGLLPDDKLTLFCEVSVVQDSVNISGQNTMNMVKVPECRLADELGGLWENSRFTDCCLCVAGQEFQAHKAILAARSPVFSAMFEHEMEESKKNRVEINDVEPEVFKEMMCFIYTGKAPNLDKMADDLLAAADKYALERLKVMCEDALCSNLSVENAAEILILADLHSADQLKTQAVDFINYHASDVLETSGWKSMVVSHPHLVAEAYRSLASAQCPFLGPPRKRLKQS
  in vitro ubiquitination assay: The SPOP-CULLIN3-RBX1 complex was shown to catalyzed BRD4 ubiquitination in vitro
